For five substances, binding signal and stoichiometry N results are on record in paper PMC3187746.

The target in data set [1] is pUL77 (Human cytomegalovirus (cosmid pCM1075; strain not stated)) (UniProt P16726). The data set is described as follows: pull-down. The note with it: scale: binding efficiency.
Data set [2] has as its target in vitro translated, radiolabeled pUL77 (wild type, from pcDNA-UL77) (human cytomegalovirus (HCMV)) (UniProt P16726). Briefly: cross-linking; in vitro translated, radiolabeled protein in PBS, 0.01% glutaraldehyde, 8% SDS-PAGE, autoradiography.
Data set [3] concerns the target purified recombinant pUL77 (rpUL77) (human cytomegalovirus (HCMV)) (UniProt P16726). Briefly: cross-linking.

For the substance bio-250 bp, in data set [1], the binding signal is 0.5.

In data set [1], bio-500 bp displayed a binding signal of 2.2.

In data set [1], bio-1000 bp showed a binding signal of 4.9.

In data set [2], “in vitro translated, radiolabeled pUL77 (wild type, from pcDNA-UL77) (from UniProt P16726 1-642) (natural protein)” came in with a stoichiometry N of 2.

On to “purified recombinant pUL77 (rpUL77) (from UniProt P16726 1-642) (natural protein)”, for which the stoichiometry N in data set [3] was determined as 2.
